In PMC11746154:

B1: Gal4AD-Spo11 [S. cerevisiae] / LexA-Rec102 [S. cerevisiae] (parent)
chain 1: MALEGLRKKYKTRQELVKALTPKRRSIHLNSNGHSNGTPCSNADVLAHIKHFLSLAANSLEQHQQPISIVFQNKKKKGDTSSPDIHTTLDFPLNGPHLCTHQFKLKRCAILLNLLKVVMEKLPLGKNTTVRDIFYSNVELFQRQANVVQWLDVIRFNFKLSPRKSLNIIPAQKGLVYSPFPIDIYDNILTCENEPKMQKQTIFPGKPCLIPFFQDDAVIKLGTTSMCNIVIVEKEAVFTKLVNNYHKLSTNTMLITGKGFPDFLTRLFLKKLEQYCSKLISDCSIFTDADPYGISIALNYTHSNERNAYICTMANYKGIRITQVLAQNNEVHNKSIQLLSLNQRDYSLAKNLIASLTANSWDIATSPLKNVIIECQREIFFQKKAEMNEIDARIFEYK
chain 2: MARDITFLTVFLESCGAVNNDEAGKLLSAWTSTVRIEGPESTDSNSLYIPLLPPGMLKIKLNFKMNDRLVTEEQELFTKLREIVGSSIRFWEEQLFYQVQDVSTIENHVILSLKCTILTDAQISTFISKPRELHTHAKGYPEIYYLSELSTTVNFFSKEGNYVEISQVIPHFNEYFSSLIVSQLEFEYPMVFSMISRLRLKWQQSSLAPISYALTSNSVLLPIMLNMIAQDKSSTTAYQILCRRRGPPIQNFQIFSLPAVTYNK

Variants of: B1
Test: Y2H quantitative β-galactosidase assay
Details: with LexA-Rec102 [S. cerevisiae]; parent: 1; read off a plot

Variant	response (normalized β-gal units)
chain 1 L16A	0.3
chain 1 L60A	0.62
chain 1 L20A	0.35
chain 1 L93A	0.15
chain 1 L105A	0.05

Next, values leading:

response (normalized β-gal units)	Variant
0.03	chain 1 L112A
0.07	chain 1 N94A
0.5	chain 1 V17A
1.2	chain 1 Q102A
